This is an account of results in publication PMC3375153, “The Role of Arg13 in Protein Phosphatase M tPphA from Thermosynechococcus elongatus” (Enzyme Research, 2012).

To fix the notation:
B1: tPphA (Thermosynechococcus vestitus BP-1; R13N) (protein)
chain: MDVAGLTDCGLINKSNQDAFYIDEKHQRFFIVADGMGGHAGGEEASRLAVDHIRQYLETHLEDLQHDPVTLLRQAFLAANHAIVEQQRQNSARADMGTTAVVILLDEKGDRAWCAHVGDSRIYRWRKDQLQQITSDHTWIAQAVQLGSLTIEQARQHPWRHVLSQCLGREDLSQIDIQPIDLEPGDRLLLCSDGLTEELTDDVISIYLSEPNVQKAAAALVDAAKTHGGRDNVTVVVISV
B2: tPphA (Thermosynechococcus vestitus BP-1; R13S) (protein)
chain: MDVAGLTDCGLISKSNQDAFYIDEKHQRFFIVADGMGGHAGGEEASRLAVDHIRQYLETHLEDLQHDPVTLLRQAFLAANHAIVEQQRQNSARADMGTTAVVILLDEKGDRAWCAHVGDSRIYRWRKDQLQQITSDHTWIAQAVQLGSLTIEQARQHPWRHVLSQCLGREDLSQIDIQPIDLEPGDRLLLCSDGLTEELTDDVISIYLSEPNVQKAAAALVDAAKTHGGRDNVTVVVISV
B3: tPphA (Thermosynechococcus vestitus BP-1; R13H) (protein)
chain: MDVAGLTDCGLIHKSNQDAFYIDEKHQRFFIVADGMGGHAGGEEASRLAVDHIRQYLETHLEDLQHDPVTLLRQAFLAANHAIVEQQRQNSARADMGTTAVVILLDEKGDRAWCAHVGDSRIYRWRKDQLQQITSDHTWIAQAVQLGSLTIEQARQHPWRHVLSQCLGREDLSQIDIQPIDLEPGDRLLLCSDGLTEELTDDVISIYLSEPNVQKAAAALVDAAKTHGGRDNVTVVVISV
B4: tPphA (Thermosynechococcus vestitus BP-1; R13K) (protein)
chain: MDVAGLTDCGLIKKSNQDAFYIDEKHQRFFIVADGMGGHAGGEEASRLAVDHIRQYLETHLEDLQHDPVTLLRQAFLAANHAIVEQQRQNSARADMGTTAVVILLDEKGDRAWCAHVGDSRIYRWRKDQLQQITSDHTWIAQAVQLGSLTIEQARQHPWRHVLSQCLGREDLSQIDIQPIDLEPGDRLLLCSDGLTEELTDDVISIYLSEPNVQKAAAALVDAAKTHGGRDNVTVVVISV
B5: tPphA (Thermosynechococcus vestitus BP-1; R13G) (protein)
chain: MDVAGLTDCGLIGKSNQDAFYIDEKHQRFFIVADGMGGHAGGEEASRLAVDHIRQYLETHLEDLQHDPVTLLRQAFLAANHAIVEQQRQNSARADMGTTAVVILLDEKGDRAWCAHVGDSRIYRWRKDQLQQITSDHTWIAQAVQLGSLTIEQARQHPWRHVLSQCLGREDLSQIDIQPIDLEPGDRLLLCSDGLTEELTDDVISIYLSEPNVQKAAAALVDAAKTHGGRDNVTVVVISV
B6: tPphA (Thermosynechococcus vestitus BP-1; R13A) (protein)
chain: MDVAGLTDCGLIAKSNQDAFYIDEKHQRFFIVADGMGGHAGGEEASRLAVDHIRQYLETHLEDLQHDPVTLLRQAFLAANHAIVEQQRQNSARADMGTTAVVILLDEKGDRAWCAHVGDSRIYRWRKDQLQQITSDHTWIAQAVQLGSLTIEQARQHPWRHVLSQCLGREDLSQIDIQPIDLEPGDRLLLCSDGLTEELTDDVISIYLSEPNVQKAAAALVDAAKTHGGRDNVTVVVISV
B7: tPphA (Thermosynechococcus vestitus BP-1) (protein)
chain: MDVAGLTDCGLIRKSNQDAFYIDEKHQRFFIVADGMGGHAGGEEASRLAVDHIRQYLETHLEDLQHDPVTLLRQAFLAANHAIVEQQRQNSARADMGTTAVVILLDEKGDRAWCAHVGDSRIYRWRKDQLQQITSDHTWIAQAVQLGSLTIEQARQHPWRHVLSQCLGREDLSQIDIQPIDLEPGDRLLLCSDGLTEELTDDVISIYLSEPNVQKAAAALVDAAKTHGGRDNVTVVVISV
B8: tPphA (Thermosynechococcus vestitus BP-1; R13Y) (protein)
chain: MDVAGLTDCGLIYKSNQDAFYIDEKHQRFFIVADGMGGHAGGEEASRLAVDHIRQYLETHLEDLQHDPVTLLRQAFLAANHAIVEQQRQNSARADMGTTAVVILLDEKGDRAWCAHVGDSRIYRWRKDQLQQITSDHTWIAQAVQLGSLTIEQARQHPWRHVLSQCLGREDLSQIDIQPIDLEPGDRLLLCSDGLTEELTDDVISIYLSEPNVQKAAAALVDAAKTHGGRDNVTVVVISV
B9: tPphA (Thermosynechococcus vestitus BP-1; R13C) (protein)
chain: MDVAGLTDCGLICKSNQDAFYIDEKHQRFFIVADGMGGHAGGEEASRLAVDHIRQYLETHLEDLQHDPVTLLRQAFLAANHAIVEQQRQNSARADMGTTAVVILLDEKGDRAWCAHVGDSRIYRWRKDQLQQITSDHTWIAQAVQLGSLTIEQARQHPWRHVLSQCLGREDLSQIDIQPIDLEPGDRLLLCSDGLTEELTDDVISIYLSEPNVQKAAAALVDAAKTHGGRDNVTVVVISV
B10: tPphA (Thermosynechococcus vestitus BP-1; R13P) (protein)
chain: MDVAGLTDCGLIPKSNQDAFYIDEKHQRFFIVADGMGGHAGGEEASRLAVDHIRQYLETHLEDLQHDPVTLLRQAFLAANHAIVEQQRQNSARADMGTTAVVILLDEKGDRAWCAHVGDSRIYRWRKDQLQQITSDHTWIAQAVQLGSLTIEQARQHPWRHVLSQCLGREDLSQIDIQPIDLEPGDRLLLCSDGLTEELTDDVISIYLSEPNVQKAAAALVDAAKTHGGRDNVTVVVISV
B11: tPphA (Thermosynechococcus vestitus BP-1; R13Q) (protein)
chain: MDVAGLTDCGLIQKSNQDAFYIDEKHQRFFIVADGMGGHAGGEEASRLAVDHIRQYLETHLEDLQHDPVTLLRQAFLAANHAIVEQQRQNSARADMGTTAVVILLDEKGDRAWCAHVGDSRIYRWRKDQLQQITSDHTWIAQAVQLGSLTIEQARQHPWRHVLSQCLGREDLSQIDIQPIDLEPGDRLLLCSDGLTEELTDDVISIYLSEPNVQKAAAALVDAAKTHGGRDNVTVVVISV

Substrate in this data set: O=[N+]([O-])c1ccc(OP(=O)(O)O)cc1
As to the kind of experiment: chromogenic phosphatase assay, A400. Format: biochemical, Thermosynechococcus vestitus. Particulars: 50 mM Tris-HCl pH 8.3, 50 mM NaCl, 1 mM DTT, 2 mM MnCl2, 30 °C, pNPP 0.1-10 mM. An excerpt: chromogenic phosphatase assay, A400 on tPphA
On to B1, for which the Km was determined as 4.73 ± 0.53 mM, the turnover number (kcat) was 0.81 ± 0.04 s⁻¹ and the kcat/Km was found to be 171 ± 8 M⁻¹ s⁻¹.
The like results for B2 were, in that order, 3.85 ± 0.32 mM, 1.06 ± 0.04 s⁻¹ and 275 ± 10 M⁻¹ s⁻¹.
The like results for B3 were, in that order, 3.30 ± 0.17 mM, 0.64 ± 0.01 s⁻¹ and 194 ± 3 M⁻¹ s⁻¹.
As for B4, the Michaelis constant (Km) was determined as 1.39 ± 0.10 mM, the kcat is 1.22 ± 0.03 s⁻¹ and the catalytic efficiency (kcat/Km) was 878 ± 21 M⁻¹ s⁻¹.
On to B5, for which the Km is listed as 3.58 ± 0.22 mM, the turnover number (kcat) stood at 1.17 ± 0.03 s⁻¹ and the kcat/Km came out at 327 ± 8 M⁻¹ s⁻¹.
Regarding B6, the Km is recorded as 5.11 ± 0.23 mM, the catalytic constant (kcat) stood at 1.56 ± 0.03 s⁻¹ and the kcat/Km was 305 ± 6 M⁻¹ s⁻¹.
For the protein B7, the Km turned out to be 1.06 ± 0.05 mM, the kcat is 2.25 ± 0.1 s⁻¹ and the kcat/Km turned out to be 2120 ± 94 M⁻¹ s⁻¹.
The like results for B8 were, in that order, 4.31 ± 0.28 mM, 0.42 ± 0.01 s⁻¹ and 97 ± 2 M⁻¹ s⁻¹.
Taken in the same sequence, the figures for B9 were 4.27 ± 0.39 mM, 0.79 ± 0.01 s⁻¹ and 185 ± 2 M⁻¹ s⁻¹.
For B10, the Km is listed as 4.77 ± 0.17 mM, the turnover number (kcat) came out at 1.01 ± 0.02 s⁻¹ and the catalytic efficiency (kcat/Km) was 212 ± 4 M⁻¹ s⁻¹.
Taken in the same sequence, the figures for B11 were 4.06 ± 0.21 mM, 0.5 ± 0.01 s⁻¹ and 123 ± 2 M⁻¹ s⁻¹.

By Km is commonly meant the substrate concentration at which the rate is half of its maximum. What is called kcat is the number of substrate molecules converted per active site and unit of time at saturation. The term kcat/Km denotes the turnover number divided by the Michaelis constant.
